In this assay the target is rat transferrin receptor (rat) (UniProt Q99376). The assay can be described thus: cell-based or functional assay.
Sequence of UniProt Q99376 (Q99376 whole entry): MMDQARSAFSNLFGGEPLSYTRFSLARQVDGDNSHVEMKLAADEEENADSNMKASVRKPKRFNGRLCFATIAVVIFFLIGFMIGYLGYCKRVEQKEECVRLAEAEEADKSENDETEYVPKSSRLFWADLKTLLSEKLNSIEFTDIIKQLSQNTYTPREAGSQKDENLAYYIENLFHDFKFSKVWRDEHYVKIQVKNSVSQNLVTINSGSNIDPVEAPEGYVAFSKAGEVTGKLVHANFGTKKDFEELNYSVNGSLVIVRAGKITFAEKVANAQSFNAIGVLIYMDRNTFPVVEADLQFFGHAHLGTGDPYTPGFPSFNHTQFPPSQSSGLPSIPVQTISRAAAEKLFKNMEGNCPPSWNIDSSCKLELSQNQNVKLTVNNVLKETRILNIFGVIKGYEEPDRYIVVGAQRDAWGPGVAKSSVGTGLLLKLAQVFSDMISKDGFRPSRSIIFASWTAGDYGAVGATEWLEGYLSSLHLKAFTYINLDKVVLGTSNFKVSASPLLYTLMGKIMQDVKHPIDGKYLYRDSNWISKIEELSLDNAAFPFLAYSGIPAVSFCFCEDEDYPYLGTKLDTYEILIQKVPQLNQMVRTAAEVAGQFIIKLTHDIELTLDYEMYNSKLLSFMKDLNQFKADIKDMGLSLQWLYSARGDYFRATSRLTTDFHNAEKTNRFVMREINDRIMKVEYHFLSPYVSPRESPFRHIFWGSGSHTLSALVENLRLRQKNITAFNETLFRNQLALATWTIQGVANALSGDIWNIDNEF

On to “OX-26, positive control antibody against the rat transferrin receptor (AbD Serotec, # MCA155G)”, for which the percentage of RBE4 cells exhibiting multiple internalized vesicles per cell came to 92% and the percentage of primary BMECs exhibiting multiple internalized vesicles per cell stood at 46%.

The values are drawn from patent publication US20150196663A1.
